Reference: patent US10562935B2, “Stapled peptides and uses thereof” (London Health Sciences Centre Research Inc., priority 2015, dated 2020)
One block for each molecule: values may come before it. Where a SMILES comes first, the peptide text is derived from it. Bridges are numbered along the chain shown (N, C = ends).

Columns and labels:
circular dichroism = settings: pH ns, 0.5 mM
[1] = Circular dichroism (CD) spectroscopy of linear and stapled peptides in water or 40% TFE/water (Example 3); type: physicochemical; settings: for [0]208 mean residue ellipticity: λ = 208 nm; for [0]222 mean residue ellipticity: λ = 222 nm
Method: CD spectra were obtained on a Jasco J-810 spectropolarimeter and recorded in the range of 180-260 nm. Peptide solutions were prepared with a 0.1M phosphate buffer solution to a concentration of 0.5 mM. The measurements were performed in quartz cuvettes with a path length of 1 mm and a scanning speed of 10-50 nm/min. Five individual data points were averaged by the instrument in order to obtain the reported CD spectrum. The measurements were carried out at 20° C. A blank solution of 0.1M phosphate buffer solution was run before every measurement in order to baseline correct for any UV-interference observed from the buffer.
CD data for the 14- and 15-mer peptides containing HABD2 (VSKLRSQLVKRKQN, SEQ ID NO: 2) and HABD1 (NLKQKIKHVVKLKDE, SEQ ID NO: 4) and cyclized derivatives thereof in water or 40% TFE/water are provided below in Tables 8 (water) and 9 (40% TFE/water). Tables 8 and 9 provide the mean residue ellipicity ([θ] deg cm^2 dmol^−1) at λ=222 and 208 nm for each peptide and ratios of ellipticities at 222/208. Each of the peptides was acetylated at its amino terminus and amidated at its carboxy terminus.
CD data for linear peptides having the sequences […] (SEQ ID NO: 5) and […] (SEQ ID NO: 6) and cyclized derivatives thereof in water or 40% TFE/water are provided below in Tables 12 (water) and 13 (40% TFE/water). Tables 12 and 13 provide the mean residue ellipicity ([0] deg cm^2 dmol^−1) at λ=222 and 208 nm for each peptide and ratios of ellipticities at 222/208. Each of the peptides was acetylated at its amino terminus and amidated at its carboxy terminus.
Circular Dichroism (CD) spectroscopy is a tool that is used to study the secondary structure characteristics of a compound. Peptides and proteins can fold into organized structures, such as alpha helices and beta sheets, which are the result of complex hydrogen bonding and other interactions between amino acid side chains, as well as adopt a random coil formation, which lacks much of the organization of the other two structures. The CD spectrum of an alpha helix is characterized by two local minima at 208 nm and 222 nm. The ratio of the values of the molar ellipticities at these wavelengths ([θ]222/[θ]208) is a strong indication of the relative helicity of a compound; a compound is more helical when the ratio of these two values approaches 1.0. Synthetic constraints introduced to the peptide backbone can force a peptide chain to increase its helical character. These constraints can be introduced by staples, of varying types, which allow cyclization of the peptide backbone to take place.

[2] = Direct HA-binding ELISA of biotinylated peptides on HA coated plates (Example 4); parameters: key to HA binding: absorbance (color) read at 450 nm
Method: Each of these peptides was biotinylated at its amino-terminus, and an AEEA spacer was included to separate the peptide sequence from the biotin molecule.
HA coated plates were purchased (ECHELON). Peptides were dissolved in 2 mM PBS to constant molarity, aliquoted and stored at −20° C. until used in assays. 7 kDa biotin-labeled RHAMM (SEQ ID NO: 1) was synthesized and used as a positive control in these assays. Biotin labeled peptides were added to the HA coated wells (n=3 replicates/peptide) at either 0.8 or 0.08 μM and then incubated with shaking overnight at 4° C. Wells were washed free of excess unbound peptides using 200 μl PBS (4 times). 100 μl of Streptavidin-HRP was then added to each well and the plate was incubated at room temperature for 1 hr. The plate was then washed with 200 μl PBS/well 4 times and TMB Liquid Substrate System for ELISA (Sigma) was added to each well, incubated for 5-10 min at room temperature and color read at 450 nm Plate Reader (BioTek, SYNERGY H4, Hybrid Reader).
Direct HA-binding results for the biotinylated equivalents of compounds 132 and 150-161 are show in FIG. 39, and results for compounds 265-268 and 275-278 are shown in FIG. 40.

[3] = tested on: RHAMM-overexpressing (LR21) cells; assay: Cell migration assay (Boyden chamber, Chemicon ECM510); type: cell-based; settings: % inhibition relative to positive control
Method: Compounds 132, 133, 150-152, 156-161, 265-269, 275, 277, and 278 were evaluated for their ability to inhibit cell migration. Cell migration assays were performed using Chemicon Assay Kits (ECM510 (Migration); Billerica, Mass., USA) according to the manufacturer's protocol. Briefly, sub-confluent cultures of RHAMM-overexpressing (LR21) cells were serum starved overnight. 7.5×10^4 cells were then plated in the upper chamber of a Boyden chamber. either in the presence or absence of 10 ng/mL of peptide. 30% fetal bovine serum in DMEM was used as the chemo-attractant in the lower chamber. The number of cells that had crossed the membrane after 20 hours was assessed using the CYQUANT GR Dye and lysis buffer solution provided in the kit. Fluorescence was measured with a fluorescent plate reader using a 480/520 nm filter set.
Values are the mean and SDM of n=3 replicates. *p<0.05, **p<0.01. All statistics compare to 30% serum control. In FIGS. 41-43, where bars are labeled with two compound numbers (“133/150” and “135/152”) this means that the data were pooled for the indicated compounds, i.e., for the non-acetylated and acetylated versions of the indicated peptides.

[4] = tested on: RHAMM-overexpressing (LR21) cells; assay: Cell invasion assay (Boyden chamber with MATRIGEL, Chemicon ECM555); type: cell-based; settings: % inhibition relative to positive control; 10 ng/mL of peptide
Method: Compounds 132, 133, 135, 150-153, 156, 265-269, and 275-278 were evaluated for their ability to inhibit cellular invasion. Invasion assays were performed using Chemicon Assay Kits ECM555 (Invasion); Billerica, Mass., USA) according to the manufacturer's protocol. Invasion assays are performed in an identical manner as the migration assays described above in Example 5, except that cells are required to invade through a layer of extracellular matrix (MATRIGEL) coating the filter that separates the upper and lower Boyden chambers. Briefly, sub-confluent cultures of RHAMM-overexpressing (LR21) cells were serum starved overnight before plating 7.5×10^4 cells in the upper chamber of a Boyden chamber either in the presence or absence of 10 ng/mL of peptide. 30% fetal bovine serum in DMEM was used as the chemo-attractant in the lower chamber. The number of cells that had crossed the membrane after 20 hours was assessed using the CYQUANT® GR Dye and lysis buffer solution provided in the kit. Fluorescence was measured with a fluorescent plate reader using 480/520 nm filter set.
Values the mean and SDM of n=3 replicates. *p<0.05, **p<0.01, ***p<0.001 All statistics compared to 30% serum control. In FIG. 49, where bars are labeled with two compound numbers (“152/135”) this means that the data were pooled for the indicated compound, i.e., for the non-acetylated and acetylated versions of the indicated peptide.

[5] = Function blocking score: total percent inhibition over migration, invasion, inflammation and fibrosis assays divided by number of assays; type: cell-based; settings: total percent inhibition for all assays tested divided by number of assays
Method: As documented in the Examples hereinabove, a variety of cyclized peptides were produced that contained the HA-binding domain 1 (HABD1), HA-binding domain 2 (HABD2), or both HABD1 and HABD2. These peptides were evaluated for helicity, direct HA binding and in a number of cell-based bioassays (effects on migration, invasion, NFkB activation, and TGFβ1 production) that are relevant to inflammation and fibrosis. The relationships amongst helicity, HA-binding, and biofunction were evaluated. Peptides were divided into three groups for this analysis: (1) peptides containing HABD1 (“HABD1”); (2) peptides containing HABD2 (“HABD2”); and peptides containing most or all of HABD1 and all of HABD2 (“HABD1+HABD2”). R^2 values were calculated to quantify the relationships between helicity, HA-binding, and biofunction were evaluated.
The results of this analysis for the HABD1 peptides are shown below in Tables 15 and 16. Table 16 provides a function blocking scores for each of the tested peptides and provides R^2 values showing the relationship between HA binding and helicity (“HA binding vs. CD”), HA binding and function-blocking score (“HA binding vs. FBS”) and helicity vs. function-blocking score (“CD vs. FBS”). The same type of summaries are provided for the HABD2 peptides in Tables 17 and 18 below, and for the HABD1+HABD2 peptides in Tables 19 and 20 below.
Function blocking scores were calculated as the total percent inhibition achieved by the peptide for all assays the peptides were tested in, divided by the number of assays. Assays included migration, invasion, inflammation and fibrosis assays. Not all peptides were tested all of the assays. All peptides were included for deriving R^2 values (Pearson's formula).

[6] = water (methods paragraph says 0.1 M phosphate; tables say water), 20 °C
[7] = as repeated in tables 16, 18, 20

Molecule: CC(C)[C@H](N)C(=O)N[C@@H](CO)C(=O)N[C@@H](CCCCN)C(=O)N[C@H]1CCC(=O)NCCCC[C@@H](C(=O)N[C@H](C(=O)N[C@@H](CCCCN)C(=O)N[C@@H](CCCNC(=N)N)C(=O)N[C@@H](CCCCN)C(=O)N[C@@H](CCC(N)=O)C(=O)N[C@@H](CC(N)=O)C(N)=O)C(C)C)NC(=O)[C@H](CCC(N)=O)NC(=O)[C@H](CO)NC(=O)[C@H](CCCNC(=N)N)NC1=O (H-VSKERSQKVKRKQN-NH2; lactam 4-8)
helicity (circular dichroism; Milli-Q water, ns °C): -2260 MRE222

Molecule: CC(C)C[C@H](NC(=O)[C@H](CCCCN)NC(=O)[C@H](CO)NC(=O)[C@@H](N)C(C)C)C(=O)N[C@@H](CCCNC(=N)N)C(=O)N[C@@H](CO)C(=O)N[C@H]1CCC(=O)NCCCC[C@@H](C(=O)N[C@@H](CCCCN)C(=O)N[C@@H](CCC(N)=O)C(=O)N[C@@H](CC(N)=O)C(N)=O)NC(=O)[C@H](CCCCN)NC(=O)[C@H](C(C)C)NC(=O)[C@H](CC(C)C)NC1=O (H-VSKLRSELVKKKQN-NH2; lactam 7-11)
helicity (circular dichroism; Milli-Q water, ns °C): -1570 MRE222

Molecule: CC(C)C[C@H](NC(=O)[C@H](CCCCN)NC(=O)[C@H](CO)NC(=O)[C@@H](N)C(C)C)C(=O)N[C@@H](CCCNC(=N)N)C(=O)N[C@H]1CCC(=O)NCCCC[C@@H](C(=O)N[C@@H](CCCNC(=N)N)C(=O)N[C@@H](CCCCN)C(=O)N[C@@H](CCC(N)=O)C(=O)N[C@@H](CC(N)=O)C(N)=O)NC(=O)[C@H](C(C)C)NC(=O)[C@H](CC(C)C)NC(=O)[C@H](CCC(N)=O)NC1=O (H-VSKLREQLVKRKQN-NH2; lactam 6-10)
helicity (circular dichroism; Milli-Q water, ns °C): -4400 MRE222

Molecule: CC[C@H](C)[C@@H]1NC(=O)[C@H](CCCCN)NC(=O)[C@@H](NC(=O)[C@H](CCCCN)NC(=O)[C@H](CC(C)C)NC(=O)[C@H](CC(N)=O)NC(C)=O)CCC(=O)NCCCC[C@@H](C(=O)N[C@H](C(=O)N[C@H](C(=O)N[C@@H](CCCCN)C(=O)N[C@@H](CC(C)C)C(=O)N[C@@H](CCCCN)C(=O)N[C@@H](CC(=O)O)C(=O)N[C@@H](CCC(=O)O)C(N)=O)C(C)C)C(C)C)NC(=O)[C@H](CCCCN)NC1=O (Ac-NLKEKIKKVVKLKDE-NH2; lactam 4-8)
helicity (circular dichroism; [6]): -2460 MRE222

Molecule: Ac-VSKLRSQLVKRKQN-NH2
helicity (circular dichroism; [6]): -1100 MRE222

Molecule: CC(C)C[C@@H]1NC(=O)[C@H](CCC(N)=O)NC(=O)[C@H](CO)NC(=O)[C@@H](NC(=O)[C@H](CC(C)C)NC(=O)[C@H](CCCCN)NC(=O)[C@H](CO)NC(=O)[C@@H](N)C(C)C)CCC(=O)NCCCC[C@@H](C(=O)N[C@@H](CCCCN)C(=O)N[C@@H](CCCNC(=N)N)C(=O)N[C@@H](CCCCN)C(=O)N[C@@H](CCC(N)=O)C(=O)N[C@@H](CC(N)=O)C(N)=O)NC1=O (H-VSKLESQLKKRKQN-NH2; lactam 5-9)
helicity (circular dichroism; Milli-Q water, ns °C): -4400 MRE222

Molecule: CC(=O)N[C@H](C(=O)N[C@@H](CO)C(=O)N[C@@H](CCCCN)C(=O)N[C@@H](CC(C)C)C(=O)N[C@H]1CCC(=O)NCCCC[C@@H](C(=O)N[C@@H](CCCCN)C(=O)N[C@@H](CCCNC(=N)N)C(=O)N[C@@H](CCCCN)C(=O)N[C@@H](CCC(N)=O)C(=O)N[C@@H](CC(N)=O)C(N)=O)NC(=O)[C@H](CC(C)C)NC(=O)[C@H](CCC(N)=O)NC(=O)[C@H](CO)NC1=O)C(C)C (Ac-VSKLESQLKKRKQN-NH2; lactam 5-9)
helicity (circular dichroism; [6]): -6450 MRE222

HA binding [2, 7]: 0.01
HA direct binding (OD) ([2]; optical density, summary tables 15, 17, 19): 0.01 OD
Molecule: Ac-NLKQKIKHVVKLKDE-NH2 [Compound 156]
[θ]222/[θ]208 ratio of ellipticities ([1]; [θ]222/[θ]208 ratio in water, summary tables 15, 17, 19): 0.11
[θ]222/[θ]208 ratio of ellipticities [1, 7]: 0.11
[0]222/[0]208 ratio of ellipticities ([1]; in 40% TFE/water): 0.74
[0]222/[0]208 ratio of ellipticities ([1]; in water): 0.11
alpha-helical character by CD (in words) ([1]; in water): nominal alpha helical character in water
[0]208 mean residue ellipticity ([1]; in 40% TFE/water): -1.03E+04 deg cm^2 dmol^−1
[0]208 mean residue ellipticity ([1]; in water): -9.00E+02 deg cm^2 dmol^−1
[0]222 mean residue ellipticity ([1]; in 40% TFE/water): -8.57E+03 deg cm^2 dmol^−1
[0]222 mean residue ellipticity ([1]; in water): -1.01E+02 deg cm^2 dmol^−1
Migration (% inhib.) [3]: 0 % inhib.
Invasion (% inhib.) [4]: 0 % inhib.
Function blocking score (FBS) [5]: 0

Molecule: CC(=O)N[C@@H](CC(N)=O)C(=O)N[C@@H](CC(C)C)C(=O)N[C@@H](CCCCN)C(=O)N[C@@H](CCC(N)=O)C(=O)N[C@@H](CCCCN)C(=O)N[C@H]1CCC(=O)NCCCC[C@@H](C(=O)N[C@@H](CCCCN)C(=O)N[C@@H](CC(C)C)C(=O)N[C@@H](CCCCN)C(=O)N[C@@H](CC(=O)O)C(=O)N[C@@H](CCC(=O)O)C(N)=O)NC(=O)[C@H](C(C)C)NC(=O)[C@H](Cc2c[nH]cn2)NC(=O)[C@H](CCCCN)NC1=O (Ac-NLKQKEKHVKKLKDE-NH2; lactam 6-10)
helicity (circular dichroism; [6]): -2610 MRE222
